Test results published in US20090029390A1 (KOREA INSTITUTE OF SCIENCE AND TECHNOLOGY, published 2009).
Ends that are not written are not given here. * marks the point of attachment. FITC = O=C1OC2(c3ccc(O)cc3Oc3cc(O)ccc32)c2ccc(NC(=S)*)cc21; Ahx = NCCCCCC(=O)O

Tests used:
[1] = target: T1, GST-p300 (truncated p300, amino acids 1-221) (Homo sapiens (Human), UniProt Q09472 300-520); experiment: fluorescence polarization, labeled peptide titrated with GST-p300
T1 construct: Expressed in E. coli BL21 from pGEX-4T-1 and eluted as a GST fusion; GST was not removed; not shown: glutathione S-transferase (GST) tag encoded by the pGEX-4T-1 vector

[2] = target: T2, GST-CBP (truncated human CBP, amino acids 1-450) (human, UniProt Q92793 1-450); experiment: fluorescence polarization, labeled peptide titrated with GST-CBP 0-3000 nM
T2 construct: Expressed in E. coli BL21 from pGEX-KG and eluted as a GST fusion; GST was not removed; not shown: glutathione S-transferase (GST) tag encoded by the pGEX-KG vector
Procedure: (§1) The binding affinity and features between the HIF-1α peptides and CBP or p300 proteins were analyzed by measuring the fluorescence polarization (FP) values that were changed by the formation of a protein-ligand complex through the interaction between the CBP or p300 proteins and the synthesized peptides that were manufactured by the method as described in above Example 1. The FP values were measured with a fluorescence spectrometer (Perkin-Elmer), which was set to have a slit width of 5 nm and a total integration time of 5 seconds. EBC Buffer (50 mM Tris and 120 mM NaCl; pH 8.0, 0.25% Nonidet P (NP)-40) was used for the binding reaction.
(§2) To compare interactions between the four peptides derived from different regions in HIF-1α C-TAD with CBP or p300, these fluorescein-labeled HIF-1α peptides were mixed with CBP proteins at varying concentrations from 0 to 3000 nM under the conditions of above Example 2-2, and then the FP (fluorescence polarization) values were measured (FIG. 2A).

[3] = target: T2, GST-CBP (truncated human CBP, amino …); experiment: fluorescence polarization, 100 nM labeled peptide titrated with GST-CBP
Procedure: as §1, §2

[4] = target: T1, GST-p300 (truncated p300, amino acids …); experiment: fluorescence polarization competition against F-HIF-1α(786-826) for GST-p300

T2 sequence (Q92793 1-450): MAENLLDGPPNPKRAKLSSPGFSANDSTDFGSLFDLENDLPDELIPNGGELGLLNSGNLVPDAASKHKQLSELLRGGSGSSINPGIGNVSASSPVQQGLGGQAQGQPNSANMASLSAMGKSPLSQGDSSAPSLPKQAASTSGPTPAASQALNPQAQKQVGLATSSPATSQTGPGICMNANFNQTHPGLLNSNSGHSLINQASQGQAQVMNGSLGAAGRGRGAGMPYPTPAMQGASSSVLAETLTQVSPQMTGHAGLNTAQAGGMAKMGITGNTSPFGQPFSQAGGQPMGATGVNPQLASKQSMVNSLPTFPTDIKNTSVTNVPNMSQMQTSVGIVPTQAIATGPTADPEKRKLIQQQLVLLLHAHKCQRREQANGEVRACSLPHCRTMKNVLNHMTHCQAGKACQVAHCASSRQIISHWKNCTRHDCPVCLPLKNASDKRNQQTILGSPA
T1 sequence (Q09472 300-520): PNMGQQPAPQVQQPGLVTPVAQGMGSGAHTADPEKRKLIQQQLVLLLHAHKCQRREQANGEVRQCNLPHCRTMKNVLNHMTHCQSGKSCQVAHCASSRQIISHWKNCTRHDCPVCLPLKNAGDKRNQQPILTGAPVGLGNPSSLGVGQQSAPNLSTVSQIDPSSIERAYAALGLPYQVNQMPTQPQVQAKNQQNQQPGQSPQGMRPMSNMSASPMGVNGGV

**Q.** Does {FITC-Ahx}-DESGLPQLTSYDCEVNAPIQGSRNLLQGEELLRAL (Synthetic fluorescein-labeled peptide) [F-HIF-1α (788-822, SEQ ID NO: 6)] bind [1]?
**A.** Result: binds

**Q.** Does {FITC-Ahx}-DESGLPQLTSYDCEVNAPIQGSRNLLQGEELLRAL (Synthetic fluorescein-labeled peptide) [F-HIF-1α (788-822, SEQ ID NO: 6)] bind [2]?
**A.** Result: binds

**Q.** Does {FITC-Ahx}-SDLACRLLGQSMDESGLPQLTSYDCEVNAPIQGSRNLLQ (cysteine pairing not given here, Synthetic fluorescein-labeled peptide) [F-HIF-1α (776-814, SEQ ID NO: 5)] bind [1]?
**A.** Result: no binding

**Q.** Does {FITC-Ahx}-SDLACRLLGQSMDESGLPQLTSYDCEVNAPIQGSRNLLQ (cysteine pairing not given here, Synthetic fluorescein-labeled peptide) [F-HIF-1α (776-814, SEQ ID NO: 5)] bind [3]?
**A.** Result: no binding (tested: 3000 nM)

B1: F-HIF-1α (786-826, SEQ ID NO: 4) (peptide)
peptide: {FITC-Ahx}-SMDESGLPQLTSYDCEVNAPIQGSRNLLQGEELLRALDQVN
notes: Synthetic fluorescein-labeled peptide; also called untreated peptide
**Q.** Which Kd [1] does the source give for B1 here?
**A.** Its Kd is 180 nM.

**Q.** And the Kd [2]?
**A.** The Kd was 175 nM.

B2: F-HIF-1α (776-826, SEQ ID NO: 3) (peptide)
peptide: {FITC-Ahx}-SDLACRLLGQSMDESGLPQLTSYDCEVNAPIQGSRNLLQGEELLRALDQVN
modifications: cysteine pairing not given here
notes: Synthetic fluorescein-labeled peptide from the C-TAD of human HIF-1α
**Q.** For B2, which Kd [1] is on record?
**A.** Its Kd is 157 nM.

**Q.** What about the Kd [2] of the same binder?
**A.** The Kd was 196 nM.

B3: F-HIF-1α (786-826)[C800A] (peptide)
peptide: {FITC-Ahx}-SMDESGLPQLTSYDAEVNAPIQGSRNLLQGEELLRALDQVN
notes: Position 800 counts on full-length HIF-1α
**Q.** Does B3 bind [1]?
**A.** Result: binds

B4: T796D HIF-1α (786-826) peptide (peptide)
peptide: SMDESGLPQLDSYDCEVNAPIQGSRNLLQGEELLRALDQVN
notes: Unlabeled recombinant peptide with GST removed by thrombin; Position counts on full-length HIF-1α; also called T796D mutant peptide
**Q.** Does B4 bind [4]?
**A.** Result: binds

B5: N803A HIF-1α (786-826) peptide (peptide)
peptide: SMDESGLPQLTSYDCEVAAPIQGSRNLLQGEELLRALDQVN
notes: Unlabeled recombinant peptide with GST removed by thrombin; Position counts on full-length HIF-1α; also called N803A mutant peptide
**Q.** Does B5 bind [4]?
**A.** Result: binds
